# Laboratory results as given in patent US7429481.
# Where two headings read alike, the source gives them in different places.
# Tests used:
# [1] = biological target: human Her2/neu receptor (human) (UniProt P04626)
# [2] = biological target: human Her2/neu receptor (human) (UniProt P04626); assay: flow cytometry, SKBR3 cells stained with Herceptin
substance,measurement,setting,value
"Herceptin, the humanized form of 4D5 (antibody)",mean fluorescence,[1],186
same,mean fluorescence,[2],401
